Test results reported in patent US20190328677A1.
One block for each substance: values may come before it.

Assays:
[1] = target: Fn14 extracellular domain (recombinant, Cell Sciences); experiment: SPR (Biacore), Fn14 extracellular domain on chip, binding isotherm of RUeq, per nanoparticle
[2] = target: human Fn14 on cells (MEF Fn14-V5, U87-Luc/GFP, 231-Luc) (human); experiment: human U87 glioma cells treated with fluorescent particles (FIG. 3C; legend says flow cytometry)
[3] = target: human Fn14 on cells (MEF Fn14-V5, U87-Luc/GFP, 231-Luc) (human); experiment: flow cytometry, MEF Fn14-V5 cells expressing human Fn14
[4] = target: Fn14 extracellular domain (recombinant, Cell Sciences); experiment: SPR (Biacore 3000), Fn14 extracellular domain on CM5 chip, equilibrium fit, per nanoparticle
[5] = target: human Fn14 on cells (MEF Fn14-V5, U87-Luc/GFP, 231-Luc) (human); experiment: flow cytometry, human U87-Luc/GFP GBM cells
[6] = target: Fn14 extracellular domain (recombinant, Cell Sciences); experiment: SPR (Biacore), ratio of KD against free ITEM4
[7] = target: Fn14 extracellular domain (recombinant, Cell Sciences); experiment: SPR (Biacore 3000), Fn14 extracellular domain on CM5 chip, equilibrium fit
[8] = target: Fn14 extracellular domain (recombinant, Cell Sciences); experiment: SPR (Biacore), Fn14 chip, nanoparticles first incubated with mouse blood serum
[9] = target: human Fn14 on cells (MEF Fn14-V5, U87-Luc/GFP, 231-Luc) (human); experiment: flow cytometry, 231-Luc cells
[10] = target: human Fn14 on cells (MEF Fn14-V5, U87-Luc/GFP, 231-Luc) (human); experiment: cell-based or functional assay

Kd [1]: 26.5 nM
Substance: PLGA-PEG10%-ITEM40.1% nanoparticles

fold increase in binding to glioma cells against non-targeted BPN [2]: 4.5 fold
Substance: BPN conjugated with ITEM4 at high density

fold cellular uptake against CNP [3]: 2.5 fold | Kd [4]: 0.024 nM | fold cellular uptake efficiency against CNP alone [5]: 3.5 fold | fold higher binding affinity than ITEM4 alone [6]: 65 fold
Substance: CNP-ITEM4 (high): 100 nm PEG-coated polystyrene nanoparticles decorated with a high density of ITEM4

Kd [4]: 0.106 nM | fold cellular uptake efficiency against CNP alone [5]: 1.25 fold | fold higher binding affinity than ITEM4 alone [6]: 15 fold
Substance: CNP-ITEM4 (low): 100 nm PEG-coated polystyrene nanoparticles decorated with a low density of ITEM4

Kd [7]: 1.57 nM
Substance: thiol-modified ITEM4 (ITEM4-SH) (antibody)

Continued, substance first:

Substance: PLGA-PEG1%-ITEM41% nanoparticles
Kd [1]: 3.2 nM

Substance: ITEM4 monoclonal antibody (Fn14-specific monoclonal antibody)
Kd [7]: 1.62 nM

Substance: PLGA-PEG5%-ITEM41% nanoparticles
Kd [1]: 2.4 nM

Substance: PLGA-PEG10%-ITEM410% nanoparticles
Kd [1]: 2.6 nM

Substance: PLGA-PEG10%-ITEM41% nanoparticles (optimized DART nanoparticles)
Kd [8]: 6.1 nM | fold cellular association efficiency against PLGA-PEG [9]: 2.5 fold | IC50 (as paclitaxel), viability of 231-Luc cells by MTS assay, 2 h exposure then 24 h in fresh medium (in vitro clearance study), paclitaxel-loaded particles [10]: 130 nM | Kd [1]: 1.9 nM
